This is an account of results in PMC4838342 (Nucleic Acids Research, 2015).

The target in one assay is MBP H3 116–135 (human). Nature of the assay: SEC; analytical gel filtration, Superdex S200 10/300 GL, 20 mM Hepes-KOH pH 7.5, 200 mM sodium chloride; fractions on SDS-PAGE, Coomassie. The note with it: both partners purified.
The next assay has as its target H3 115–135 peptide. Nature of the assay: NMR titration; 1H-15N HSQC of 15N-labelled sNASP (41–330, Δ101–159) titrated with H3 115–135 peptide in PBS; 298 K; assignments in 20 mM NaPO4 pH 7.0, 100 mM NaCl, 5 mM β-mercaptoethanol. The note with it: both partners purified.
H3 115–135 peptide, sequence (peptide, as listed by the source): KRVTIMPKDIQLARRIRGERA

B1: Sim3 (as used in gel filtration) (natural protein, Schizosaccharomyces pombe, UniProt Q9USQ4 1-396, looked up)
chain: MSSDTKTLENSKGNSATDADTKNPSSSDSRAIEQLVTQGNMAYAQKNYEEAVDKYGQALMQSESIHGSESLENRNVLWLYGKSLFQIAIENSQVLGNALGAKESVSQATESFEEPEAIGSFTFSGQKIENKYTVNEENSSIAHPEKESEEKETNEASPASEEDEDDFNVAWEVLDLTRVMQSKAVDAYPDSKDEKIRLADIYDLLGELSLEIENFSQASQDLKTALEWKEKVYNVSNNTLLSEAHYKLALALEFTNPEDPSNKSRACEHVEKAAEILKNVLNERENEVTDKKGKGKQKAEESTLTSDLENLREMLSELEQKTLDLKHGAPSLEEAVMSKMHESSLLSKDSSSLAQAVAEAVKNANDLGGLVKRKRTKQEVTSSSQKEGPKDKKKKD
notes: source: bacteria, purified
Consider B1, for which, in the assay with MBP H3 116–135, the binding result is reported as “binds”.

B2: sNASP (41–330, Δ101–159) (domain or fragment)
chain: SEAKKLLGLGQKHLVMGDIPAAVNAFQEAASLLGKKYGETANECGEAFFFYGKSLLELARLENKSLQENEEEEIGNLELAWDMLDLAKIIFKRQETKEAQLYAAQAHLKLGEVSVESENYVQAVEEFQSCLNLQEQYLEAHDRLLAETHYQLGLAYGYNSQYDEAVAQFSKSIEVIENRMAVLNEQVKEAEGSSAEYKKEIEELKELLPEIREKIEDAKESQRSGNVAELA
modifications: 15N (and 13C, 2H) isotope labelled
Take B2: the binding result with H3 115–135 peptide was “binds”.
